Source: paper PMC8458385, “Molecular basis for PICS-mediated piRNA biogenesis and cell division” (Nature Communications, 2021)
Where a chain is given by its changes, count along the chain named. Names may count otherwise.

T1: TOFU-6^RRM D26A/W27A (C. elegans, UniProt Q09293 2-92, D26A | W27A)
T1 construct: TOFU-6, C. elegans, RRM domain, residues 2-92, with D26A and W27A; Cloned into pET28-MHL; also called D26A/W27A(TOFU-6RRM); source: E. coli BL21(DE3), purified (Ni-NTA, TEV cleavage, second Ni-NTA); not shown: His tag (inferred from the Ni-NTA purification), N-terminal, cleaved
T1 sequence (looked up): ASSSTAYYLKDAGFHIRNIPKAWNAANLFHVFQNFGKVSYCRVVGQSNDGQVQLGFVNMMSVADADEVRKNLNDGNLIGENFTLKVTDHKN

T2: ERH-2^1-103-(Gly-Ser-Ser)7-PICS-1^180-200 fusion protein (C. elegans, UniProt Q20057 1-103; O76616 180-200)
T2 construct: ERH-2, C. elegans, residues 1-103; 21-aa linker (Gly-Ser-Ser)7; PICS-1 (PID-3), C. elegans, EBM, residues 180-200; the methods describe only the 1-103 fusion; also called ERH-2-(GSS)7-PICS-1180-200; ERH-2-(GSS)7-PICS-1; source: E. coli BL21(DE3), purified (Ni-NTA, TEV cleavage, second Ni-NTA, Superdex 75); not shown: His tag (inferred from the Ni-NTA purification), N-terminal, cleaved
T2 chain: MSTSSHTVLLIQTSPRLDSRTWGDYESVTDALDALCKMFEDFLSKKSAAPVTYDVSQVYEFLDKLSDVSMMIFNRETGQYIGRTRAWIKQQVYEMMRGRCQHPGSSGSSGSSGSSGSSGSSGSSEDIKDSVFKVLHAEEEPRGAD

T3: PICS-1^5-200 (PICS-1^ΔRRM) (C. elegans, UniProt O76616 5-200)
T3 construct: PICS-1 (PID-3), C. elegans, residues 5-200 (lacks the RRM domain); Cloned into pET28-MHL; source: E. coli BL21(DE3), purified (Ni-NTA, TEV cleavage, second Ni-NTA); not shown: His tag (inferred from the Ni-NTA purification), N-terminal, cleaved
T3 sequence (looked up): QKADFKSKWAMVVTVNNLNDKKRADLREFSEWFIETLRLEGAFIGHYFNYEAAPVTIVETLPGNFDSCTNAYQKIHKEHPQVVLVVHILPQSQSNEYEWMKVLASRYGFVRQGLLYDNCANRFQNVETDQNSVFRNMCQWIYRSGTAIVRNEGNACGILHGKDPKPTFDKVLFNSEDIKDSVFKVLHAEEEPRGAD

T4: PICS-1^5-282 (almost full-length PICS-1) (C. elegans, UniProt O76616 5-282)
T4 construct: Cloned into pET28-MHL; Two copies in the 2:2:2 complex with ERH-2 and TOFU-6^RRM; source: E. coli BL21(DE3), purified (Ni-NTA, TEV cleavage, second Ni-NTA); not shown: His tag (inferred from the Ni-NTA purification), N-terminal, cleaved
T4 sequence (looked up): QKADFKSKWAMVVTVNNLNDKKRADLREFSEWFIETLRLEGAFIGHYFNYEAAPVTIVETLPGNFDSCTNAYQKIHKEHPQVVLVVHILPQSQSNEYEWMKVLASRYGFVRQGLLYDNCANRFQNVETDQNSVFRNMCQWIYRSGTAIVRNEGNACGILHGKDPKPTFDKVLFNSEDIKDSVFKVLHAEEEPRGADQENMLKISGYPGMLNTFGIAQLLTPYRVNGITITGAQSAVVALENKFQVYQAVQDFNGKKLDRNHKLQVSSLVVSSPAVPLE

T5: ERH-2 D67A (C. elegans, UniProt Q20057 1-113, D67A)
T5 construct: ERH-2, C. elegans, with D67A; Cloned into pET28-MHL; also called D67A(ERH-2); source: E. coli BL21(DE3), purified (Ni-NTA, TEV cleavage, second Ni-NTA); not shown: His tag (inferred from the Ni-NTA purification), N-terminal, cleaved
T5 sequence (looked up): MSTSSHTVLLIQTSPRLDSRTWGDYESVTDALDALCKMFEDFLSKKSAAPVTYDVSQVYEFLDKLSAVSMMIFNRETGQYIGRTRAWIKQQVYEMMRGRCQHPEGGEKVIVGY

T6: PICS-1^5-282 (C. elegans, UniProt O76616 5-282)
T6 construct: Cloned into pET28-MHL; also called almost full-length PICS-1; source: E. coli BL21(DE3), purified (Ni-NTA, TEV, second Ni-NTA); not shown: His tag (from the Ni-NTA purification), N-terminal, cleaved
T6 sequence (looked up): T4 sequence (looked up)

T7: ERH-2 (C. elegans, UniProt Q20057 1-113)
T7 construct: ERH-2, C. elegans, amplified from a cDNA library; also called wild type ERH-2; source: E. coli BL21(DE3), purified (Ni-NTA, TEV, second Ni-NTA); not shown: His tag (from the Ni-NTA purification), N-terminal, cleaved
T7 sequence (looked up): T5 sequence (looked up) with A67D

B1: PICS-1(PID-3) RRM domain (PICS-1^RRM, residues 201-282) (domain or fragment, C. elegans, UniProt O76616 201-282, looked up)
chain: QENMLKISGYPGMLNTFGIAQLLTPYRVNGITITGAQSAVVALENKFQVYQAVQDFNGKKLDRNHKLQVSSLVVSSPAVPLE
notes: Homodimer by gel filtration and in the crystal structure; The methods describe co-expression with TOFU-6^RRM from pETDuet-1 for the complex; the results say that the two domains were purified each for ITC; also called WT; source: E. coli BL21(DE3), purified (Ni-NTA, TEV cleavage, second Ni-NTA, gel filtration); not shown: His tag (inferred from the Ni-NTA purification), N-terminal, cleaved
B2: PICS-1^RRM F217E (domain or fragment, C. elegans, UniProt O76616 201-282, looked up)
chain: B1 chain with F17E
notes: Cloned into pET28-MHL; also called F217E(PICS-1RRM); source: E. coli BL21(DE3), purified (Ni-NTA, TEV cleavage, second Ni-NTA, gel filtration); not shown: His tag (inferred from the Ni-NTA purification), N-terminal, cleaved
B3: PICS-1^RRM Y250A/Q251A (domain or fragment, C. elegans, UniProt O76616 201-282, looked up)
chain: B1 chain with Y50A, Q51A
notes: Cloned into pET28-MHL; also called Y250A/Q251A(PICS-1RRM); source: E. coli BL21(DE3), purified (Ni-NTA, TEV cleavage, second Ni-NTA); not shown: His tag (inferred from the Ni-NTA purification), N-terminal, cleaved
B4: PICS-1^RRM K246A/F247A (domain or fragment, C. elegans, UniProt O76616 201-282, looked up)
chain: B1 chain with K46A, F47A
notes: Cloned into pET28-MHL; Some legends and the strain list print K245A/F246A for the transgene; also called K246A/F247A(PICS-1RRM); source: E. coli BL21(DE3), purified (Ni-NTA, TEV cleavage, second Ni-NTA); not shown: His tag (inferred from the Ni-NTA purification), N-terminal, cleaved
B5: SUMO-TOST-1^34-54 (domain or fragment, C. elegans, UniProt Q18490 34-54, looked up)
chain: NKRITLNERFGVLEKGYTIQA
notes: TOST-1, C. elegans, residues 34-54; Fused to the C-terminus of SUMO (pET28-SUMO); the Kds are for the SUMO fusion; also called TOST-1 fragment; source: E. coli BL21(DE3), purified (Ni-NTA); not shown: SUMO, N-terminal, kept
B6: ERH-2 (natural protein, C. elegans, UniProt Q20057 1-113, looked up)
chain: T5 sequence (looked up) with A67D
notes: ERH-2, C. elegans, amplified from a cDNA library; also called ERH-2 wild type; source: E. coli BL21(DE3), purified (Ni-NTA, TEV cleavage, second Ni-NTA); not shown: His tag (inferred from the Ni-NTA purification), N-terminal, cleaved
B7: SUMO-PID-1^50-70 (domain or fragment, C. elegans, UniProt Q19541 50-70, looked up)
chain: TNLHRKVTLSDRFELAALGYE
notes: PID-1, C. elegans, residues 50-70; Fused to the C-terminus of SUMO; the Kds are for the SUMO fusion; also called PID-1 fragment; source: E. coli BL21(DE3), purified (Ni-NTA); not shown: SUMO, N-terminal, kept
B8: SUMO-PICS-1^180-200 (ERH-2 binding motif, EBM) (domain or fragment, C. elegans, UniProt O76616 180-200, looked up)
chain: EDIKDSVFKVLHAEEEPRGAD
notes: Fused to the C-terminus of SUMO (pET28-SUMO); the Kds are for the SUMO fusion; also called PICS-1EBM; source: E. coli BL21(DE3), purified (Ni-NTA); not shown: SUMO, N-terminal, kept
B9: TOFU-6 RRM domain (TOFU-6^RRM, residues 2-92) (domain or fragment, C. elegans, UniProt Q09293 2-92, looked up)
chain: T1 sequence (looked up) with A25D, A26W
notes: TOFU-6, C. elegans, RRM domain, residues 2-92; source: E. coli BL21(DE3), purified (Ni-NTA, TEV cleavage, second Ni-NTA); not shown: His tag (inferred from the Ni-NTA purification), N-terminal, cleaved
B10: TOFU-6^RRM (residues 2-92) (domain or fragment, C. elegans, UniProt Q09293 2-92, looked up)
chain: T1 sequence (looked up) with A25D, A26W
notes: TOFU-6, C. elegans, RRM domain, residues 2-92; Gene codon-optimised and synthesised; for the crystal co-expressed with PICS-1^RRM from a modified pETDuet-1; also called TOFU-6 RRM domain; TOFU-6^C; source: E. coli BL21(DE3), purified (Ni-NTA, TEV, second Ni-NTA; complex with PICS-1^RRM also Superdex 75); not shown: His tag (from the Ni-NTA purification), N-terminal, cleaved
B11: PICS-1^RRM F217E (domain or fragment, C. elegans, UniProt O76616 201-282, looked up)
chain: B1 chain with F17E
notes: Cloned into pET28-MHL; the homodimer is disrupted by the mutation; source: E. coli BL21(DE3), purified (Ni-NTA, TEV, second Ni-NTA, Superdex 75); not shown: His tag (from the Ni-NTA purification), N-terminal, cleaved
B12: SUMO-fused TOST-1^34-54 (domain or fragment, C. elegans, UniProt Q18490 34-54, looked up)
chain: NKRITLNERFGVLEKGYTIQA
notes: TOST-1, C. elegans, residues 34-54; Cloned into pET28-SUMO; also called TOST-1 fragment; source: E. coli BL21(DE3), purified (Ni-NTA); not shown: SUMO, N-terminal, kept

Tests used:
[1] = target: B9; assay: ITC; MicroCal ITC200, 25 °C; 20 mM Tris pH 8.5, 200 mM NaCl or 20 mM MES pH 6.5, 200 mM NaCl; 1-2 mM protein or peptide in the syringe titrated into 30-50 μM protein in the cell; one-site model; Kd mean ± SD of a minimum of two experiments; details: both partners purified
TOFU-6^RRM D26A/W27A = target: T1, TOFU-6^RRM D26A/W27A; assay: as above; details: both partners purified
[2] = target: the molecule itself; assay: SEC; gel filtration of PICS-1^RRM wild type and F217E alone, HiLoad 16/600 Superdex 75; 20 mM Tris, 200 mM NaCl (pH 8.5 in the methods, pH 7.5 in the legend)
ERH-2 [3] = target: B6; assay: ITC; MicroCal ITC200, 25 °C; 20 mM Tris pH 8.5, 200 mM NaCl or 20 mM MES pH 6.5, 200 mM NaCl; 1-2 mM protein or peptide in the syringe titrated into 30-50 μM protein in the cell; one-site model; Kd mean ± SD of a minimum of two experiments; details: both partners purified
[4] = target: T2, ERH-2^1-103-(Gly-Ser-Ser)7-PICS-1^180-20 …; assay: as above; details: both partners purified
[5] = target: T3, PICS-1^5-200 (PICS-1^ΔRRM); assay: SEC; ERH-2 and TOFU-6^RRM mixed with PICS-1 5-282, PICS-1 5-200 or PICS-1 ΔEBM; Superose 6 Increase 10/300 GL; 20 mM Tris pH 8.5, 200 mM NaCl; peaks analysed by SDS-PAGE; details: both partners purified
[6] = target: T4, PICS-1^5-282 (almost full-length PICS-1); assay: as above; details: both partners purified
ERH-2 D67A = target: T5, ERH-2 D67A; assay: ITC; MicroCal ITC200, 25 °C; 20 mM Tris pH 8.5, 200 mM NaCl or 20 mM MES pH 6.5, 200 mM NaCl; 1-2 mM protein or peptide in the syringe titrated into 30-50 μM protein in the cell; one-site model; Kd mean ± SD of a minimum of two experiments; details: both partners purified
PICS-1^5-282 = target: T6, PICS-1^5-282; assay: SEC; ERH-2 and TOFU-6^RRM mixed with PICS-1 constructs, Superose 6 Increase 10/300 GL, 20 mM Tris hydrochloride pH 8.5, 200 mM NaCl; fractions on SDS-PAGE; details: both partners purified
[7] = target: B10; assay: ITC; MicroCal ITC200, 25 °C, 20 mM Tris pH 8.5, 200 mM NaCl or 20 mM MES pH 6.5, 200 mM NaCl; 1–2 mM in the syringe into 30–50 μM in the cell; one-site binding model; details: both partners purified
ERH-2 [8] = target: T7, ERH-2; assay: as above; details: both partners purified

Binder: B1
stoichiometry N [1]: 1.1
Kd (TOFU-6^RRM D26A/W27A): 30 µM
stoichiometry N (TOFU-6^RRM D26A/W27A): 0.7
binding result [2]: binds

Binder: B2
stoichiometry N [1]: 0.7

Binder: B3
Kd [1]: 21 µM
stoichiometry N [1]: 1.2

Binder: B4
Kd [1]: 17 µM
stoichiometry N [1]: 1.1

Binder: B5
stoichiometry N (ERH-2 [3]): 0.9
Kd [4]: 4.9 µM
stoichiometry N [4]: 0.9

Binder: B6
binding result [5]: binds
binding result [6]: binds

Binder: B7
stoichiometry N (ERH-2 [3]): 1
stoichiometry N [4]: 1.3

Binder: B8
stoichiometry N (ERH-2 [3]): 0.7
stoichiometry N (ERH-2 D67A): 0.8

Binder: B9
binding result [6]: binds

Binder: B10
binding result (PICS-1^5-282): binds

Binder: B11
Kd [7]: 0.57 µM

Binder: B12
Kd (ERH-2 [8]): 3.2 µM
